Assay results published in publication PMC4775073.

Biological target: FLAG-CTRwt (full-length) (human) (UniProt P30988)
Assay: proximity ligation; in situ PLA (Duolink) on fixed PC cells (PC-3CTRwt, PC-3CTR∆ESS, LNCaP) with anti-ZO-1 and anti-CTR sera; with/without 50 nM CT for 30 seconds; dots per cell counted

Sequence of UniProt P30988 (P30988 25-474): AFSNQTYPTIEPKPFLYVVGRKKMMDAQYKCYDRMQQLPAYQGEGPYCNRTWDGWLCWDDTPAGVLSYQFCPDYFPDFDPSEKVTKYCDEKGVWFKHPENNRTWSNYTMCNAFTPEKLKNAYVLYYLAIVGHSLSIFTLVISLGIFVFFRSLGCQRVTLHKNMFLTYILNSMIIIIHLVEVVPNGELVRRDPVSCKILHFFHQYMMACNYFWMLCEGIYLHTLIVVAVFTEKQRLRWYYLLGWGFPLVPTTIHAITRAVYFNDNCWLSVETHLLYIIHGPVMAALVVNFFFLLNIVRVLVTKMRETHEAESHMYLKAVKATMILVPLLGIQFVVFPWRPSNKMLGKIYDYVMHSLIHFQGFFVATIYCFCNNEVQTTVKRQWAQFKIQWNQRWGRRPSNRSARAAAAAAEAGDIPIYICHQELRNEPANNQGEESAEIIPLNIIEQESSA

fold increase of PLA interactions with 50 nM CT (30 seconds) over no exogenous CT: 80 fold
Substance: Zonula Occludens-1 (ZO-1), endogenous (from UniProt Q07157 1-1748) (natural protein)
